Assay results from US20230181756A1 (Novartis, published 2023).

T1: CCR9 (UniProt P51686 1-369, limits assumed)
T1 construct: whole, on cells; also called PF382 cells (CCR7-/CCR9+/CCR6+)
T1 sequence (looked up): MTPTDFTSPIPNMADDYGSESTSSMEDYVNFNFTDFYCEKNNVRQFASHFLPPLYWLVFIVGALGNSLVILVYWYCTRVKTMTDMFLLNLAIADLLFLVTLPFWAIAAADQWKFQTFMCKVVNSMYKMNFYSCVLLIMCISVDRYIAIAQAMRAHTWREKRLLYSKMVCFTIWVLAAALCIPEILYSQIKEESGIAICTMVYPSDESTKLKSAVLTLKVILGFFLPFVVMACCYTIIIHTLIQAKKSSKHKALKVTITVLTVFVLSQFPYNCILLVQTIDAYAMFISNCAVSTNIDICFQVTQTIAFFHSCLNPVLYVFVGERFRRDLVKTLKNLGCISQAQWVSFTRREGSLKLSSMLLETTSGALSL

T2: CCR6 (UniProt P51684 1-374, limits assumed)
T2 construct: whole, on cells; also called PF382 cells (CCR7-/CCR9+/CCR6+)
T2 sequence (looked up): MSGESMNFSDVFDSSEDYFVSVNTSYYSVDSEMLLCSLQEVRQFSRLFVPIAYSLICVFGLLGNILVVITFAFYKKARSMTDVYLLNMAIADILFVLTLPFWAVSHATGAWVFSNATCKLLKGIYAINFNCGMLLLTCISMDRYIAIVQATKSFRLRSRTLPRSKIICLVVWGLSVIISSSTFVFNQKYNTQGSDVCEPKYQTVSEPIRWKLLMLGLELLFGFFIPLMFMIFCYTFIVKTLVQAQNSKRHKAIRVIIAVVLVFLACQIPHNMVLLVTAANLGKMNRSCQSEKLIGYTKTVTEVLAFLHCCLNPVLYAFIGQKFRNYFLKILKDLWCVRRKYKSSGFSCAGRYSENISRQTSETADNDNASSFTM

T3: human CCR7 (human, UniProt P32248 25-378)
T3 construct: The assay field tells which; also called hCCR7; NIH3T3.hCCR7
T3 sequence: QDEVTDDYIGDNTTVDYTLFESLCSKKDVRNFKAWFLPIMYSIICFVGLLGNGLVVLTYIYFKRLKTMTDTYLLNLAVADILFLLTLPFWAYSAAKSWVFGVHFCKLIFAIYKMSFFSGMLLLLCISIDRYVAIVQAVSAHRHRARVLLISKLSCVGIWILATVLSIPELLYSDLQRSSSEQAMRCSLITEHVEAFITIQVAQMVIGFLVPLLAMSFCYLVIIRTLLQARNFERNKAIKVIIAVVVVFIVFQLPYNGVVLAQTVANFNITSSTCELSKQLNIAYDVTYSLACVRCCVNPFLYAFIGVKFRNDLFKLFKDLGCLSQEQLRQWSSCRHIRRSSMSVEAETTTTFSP

T4: rat CCR7 (rat, UniProt P47774 25-378 (mouse entry))
T4 construct: also called NIH3T3.rat CCR7
T4 chain: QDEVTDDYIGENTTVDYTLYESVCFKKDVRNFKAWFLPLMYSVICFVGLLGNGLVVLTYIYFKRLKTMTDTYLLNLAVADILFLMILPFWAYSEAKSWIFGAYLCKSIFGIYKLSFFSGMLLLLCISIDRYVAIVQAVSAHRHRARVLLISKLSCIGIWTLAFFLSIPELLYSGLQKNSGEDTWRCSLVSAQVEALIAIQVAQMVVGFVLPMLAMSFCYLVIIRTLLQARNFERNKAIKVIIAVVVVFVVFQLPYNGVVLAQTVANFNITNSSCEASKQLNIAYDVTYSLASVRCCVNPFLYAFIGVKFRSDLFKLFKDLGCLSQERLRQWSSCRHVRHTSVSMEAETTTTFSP

T5: mouse CCR7 (mouse, UniProt P47774 25-378)
T5 construct: also called NIH3T3.mouse CCR7
T5 sequence: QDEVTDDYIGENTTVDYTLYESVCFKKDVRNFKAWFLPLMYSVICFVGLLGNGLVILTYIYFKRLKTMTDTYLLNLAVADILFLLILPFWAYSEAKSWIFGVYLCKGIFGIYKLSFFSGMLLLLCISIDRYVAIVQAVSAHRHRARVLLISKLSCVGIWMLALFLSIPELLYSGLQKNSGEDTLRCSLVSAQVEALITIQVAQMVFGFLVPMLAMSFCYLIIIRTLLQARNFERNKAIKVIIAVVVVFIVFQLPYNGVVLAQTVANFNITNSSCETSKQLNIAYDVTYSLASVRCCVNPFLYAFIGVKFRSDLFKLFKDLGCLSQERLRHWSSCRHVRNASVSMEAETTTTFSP


What was measured:
CCR8 = target: T6, CCR8 (UniProt P51685 1-355, limits assumed); test: FACS on CHO-CCR8 cells
T6 construct: whole, on cells; also called CHO-CCR8
T6 sequence (P51685 whole entry): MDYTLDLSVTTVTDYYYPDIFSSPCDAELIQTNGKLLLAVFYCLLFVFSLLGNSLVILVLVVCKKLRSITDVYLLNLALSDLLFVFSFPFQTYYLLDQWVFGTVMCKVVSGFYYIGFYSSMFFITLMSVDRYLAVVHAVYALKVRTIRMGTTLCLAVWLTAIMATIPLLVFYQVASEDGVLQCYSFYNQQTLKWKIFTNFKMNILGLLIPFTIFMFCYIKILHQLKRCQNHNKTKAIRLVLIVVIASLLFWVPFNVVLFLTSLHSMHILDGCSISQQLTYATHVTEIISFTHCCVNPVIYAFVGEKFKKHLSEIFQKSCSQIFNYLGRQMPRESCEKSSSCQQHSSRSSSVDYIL

CXCR4 = target: T7, CXCR4 (UniProt P61073 1-352, limits assumed); test: FACS on HEK293-CXCR4 cells
T7 construct: whole, on cells; also called HEK293-CXCR4
T7 sequence (P61073 whole entry): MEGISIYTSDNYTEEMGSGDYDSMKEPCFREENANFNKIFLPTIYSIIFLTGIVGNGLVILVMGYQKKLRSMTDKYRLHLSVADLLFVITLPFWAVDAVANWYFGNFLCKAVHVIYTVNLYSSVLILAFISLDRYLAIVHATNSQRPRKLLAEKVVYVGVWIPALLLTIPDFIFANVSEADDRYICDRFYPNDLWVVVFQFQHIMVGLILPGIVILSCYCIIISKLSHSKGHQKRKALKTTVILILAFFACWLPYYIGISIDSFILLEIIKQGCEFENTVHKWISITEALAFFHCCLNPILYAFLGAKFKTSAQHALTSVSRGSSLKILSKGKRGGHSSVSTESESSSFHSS

CCR9 = target: T1, CCR9; test: FACS on PF382 cells (CCR7-/CCR9+/CCR6+)
CCR6 = target: T2, CCR6; test: FACS on PF382 cells (CCR7-/CCR9+/CCR6+)
human CCR7 [1] = target: T3, human CCR7; test: FACS titration, human CD4+ T cells from PBMC
human CCR7 [2] = target: T3, human CCR7; test: ELISA on CCR7-expressing VLPs, pH 5.8 buffer
human CCR7 [3] = target: T3, human CCR7; test: ELISA on CCR7-expressing VLPs, pH 7.4 buffer
human CCR7 [4] = target: T3, human CCR7; test: ELISA on CCR7-expressing VLPs, Kd at pH 5.8 over Kd at pH 7.4
human CCR7 [5] = target: T3, human CCR7; test: cell-based or functional assay
human CCR7 [6] = target: T3, human CCR7; test: FACS titration, Jeko-1 cancer cells (CCR7+)
rat CCR7 = target: T4, rat CCR7; test: FACS titration, NIH3T3 cells expressing rat CCR7
human CCR7 [7] = target: T3, human CCR7; test: FACS titration, NIH3T3 cells expressing human CCR7
mouse CCR7 = target: T5, mouse CCR7; test: FACS titration, NIH3T3 cells expressing mouse CCR7

| binding result (CCR8) | binding result (CXCR4) | binding result (CCR9) | binding result (CCR6) | EC50 (human CCR7 [1]) | Kd (human CCR7 [2]) | Kd (human CCR7 [3]) | fold change (pH 5.8/7.4) (human CCR7 [4]) | ADCC activity; IC50 (nM); reporter assay, JVM2 targets and Jurkat-V158 effectors (human CCR7 [5]) | EC50 (human CCR7 [6]) | binding result (rat CCR7) | EC50 (human CCR7 [7]) | binding result (mouse CCR7) | Binder |
| --- | --- | --- | --- | --- | --- | --- | --- | --- | --- | --- | --- | --- | --- |
| no binding (tested: 5 ug/ml) | no binding (tested: 5 ug/ml) | no binding (tested: 5 ug/ml) | no binding (tested: 5 ug/ml) | 6.7 nM | 0.504 nM | 0.0374 nM | 13 fold | – | – | – | – | – | 684E12 humanized CysMab (Fc Wild Type) (antibody, V domains shown, Human IgG1 kappa with CysMab cysteines; also called Humanized CysMab antibody 684E12) VH: EVQLVESGGGLVKPGGSLRLSCAASGFTFSNFAMSWVRQAPGKGLEWVSTISTGGTYTYYPDSVKGRFTISRDNAKNSLYLQMNSLRAEDTAVYYCARRGYSGVDKWGQGTTVTVSS VL: DVVMTQSPLSLPVTLGQPASISCKSGQSLLDSTGKTYLNWFLQRPGQSPRRLIYLVSKLDSGVPDRFSGSGSGTDFTLKISRVEAEDVGVYYCWQGTHFPQTFGGGTKLEIK |
| – | – | – | – | – | – | – | – | 2.63 nM | 12 nM | no binding | > 30 nM | no binding | 684E12 non-humanized CysMab (antibody, human IgG1, kappa, V domains shown, Chimeric human IgG1 kappa with CysMab cysteines and wild type Fc; also called Parental 684E12 hIgG1 CysMab; Non-humanized CysMab antibody 684E12) VH: EVHLVESGGGLVKPGGSLKLSCAASGFTFSNFAMSWVRQTPEKRLEWVATISTGGTYTYYPDSVKGRFTISRDNAKKTLYLQMSSLRSEDTAMYYCTRRGYDGVDKWGQGTTLTVSS VL: not shown |
